# T1: Human DLL3-ECD (Homo sapiens, UniProt Q9NYJ7)
# T1 construct: the extracellular domain of DLL3 (DLL3-ECD) from human, cynomolgus monkey, mouse and pig
# T1 sequence (Q9NYJ7 27-492 limits assumed): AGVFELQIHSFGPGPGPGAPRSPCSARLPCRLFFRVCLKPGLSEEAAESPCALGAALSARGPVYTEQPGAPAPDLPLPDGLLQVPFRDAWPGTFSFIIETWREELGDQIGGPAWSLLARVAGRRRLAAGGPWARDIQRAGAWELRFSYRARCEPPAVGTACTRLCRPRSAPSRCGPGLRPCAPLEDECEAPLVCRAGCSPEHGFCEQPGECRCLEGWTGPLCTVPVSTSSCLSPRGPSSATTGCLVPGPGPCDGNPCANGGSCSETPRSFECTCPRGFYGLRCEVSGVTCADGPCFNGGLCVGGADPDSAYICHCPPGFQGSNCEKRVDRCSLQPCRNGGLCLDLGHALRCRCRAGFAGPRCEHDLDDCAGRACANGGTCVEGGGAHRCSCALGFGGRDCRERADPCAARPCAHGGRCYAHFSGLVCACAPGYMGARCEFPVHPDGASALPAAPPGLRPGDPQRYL
# B1: MAM279: Two domain (2D) ankyrin repeat protein: serum albumin-specific domain (SEQ ID NO: 7), PT linker, DLL3-specific domain of MAM093 (protein)
# chain: DLGKKLLEAARAGQDDEVRELLKAGADVNAKDYFSHTPLHLAARNGHLKIVEVLLKAGADVNAKDFAGKTPLHLAADAGHLEIVEVLLKAGADVNAQDIFGKTPADIAADAGHEDIAEVLQKAAGSPTPTPTTPTPTPTTPTPTPTGSDLGKKLLAAAAQGQDDEVRELLKAGANVNAKDLFGYTPLHLAAWRGHLEIVEVLLKAGADVNAKDAAGETPLHLAAWFGHLEIVEVLLKAGADVNAQDLQGKTPADLAAKEGHEDIAEVLQKAA
# modifications: Ankyrin repeat protein (MAM279)
# B2: MAM279 conjugate: SEQ ID NO: 15 conjugated to DOTAM-maleimide, labelled with Pb-212 (natural lead in PK studies) (conjugate)
# chain: GSDLGKKLLEAARAGQDDEVRELLKAGADVNAKDYFSHTPLHLAARNGHLKIVEVLLKAGADVNAKDFAGKTPLHLAADAGHLEIVEVLLKAGADVNAQDIFGKTPADIAADAGHEDIAEVLQKAAGSPTPTPTTPTPTPTTPTPTPTGSDLGKKLLAAAAQGQDDEVRELLKAGANVNAKDLFGYTPLHLAAWRGHLEIVEVLLKAGADVNAKDAAGETPLHLAAWFGHLEIVEVLLKAGADVNAQDLQGKTPADLAAKEGHEDIAEVLQKAAGSGSC
# modifications: DOTAM-maleimide, Pb-212 label; Ankyrin repeat protein with tag (GS-MAM279-tag)
# B3: MAM160: Two domain (2D) ankyrin repeat protein: serum albumin-specific domain (SEQ ID NO: 7), PT linker, DLL3-specific domain MAM120 (protein)
# chain: DLGKKLLEAARAGQDDEVRELLKAGADVNAKDYFSHTPLHLAARNGHLKIVEVLLKAGADVNAKDFAGKTPLHLAADAGHLEIVEVLLKAGADVNAQDIFGKTPADIAADAGHEDIAEVLQKAAGSPTPTPTTPTPTPTTPTPTPTGSDLGTKLLSAAADGQDDEVRELLQAGADVNAKDLFGYTPLHLAAWRGHLEIVEVLLEAGADVNAKDAAGLTPLHLAAWFGHLEIVEVLLEAGADVNAQDVQGVTPADLAAKEGHEDIAEVLQQAA
# modifications: Ankyrin repeat protein (MAM160)
# Experiments:
# Human DLL3-ECD = biological target: T1, Human DLL3-ECD; experiment: SPR, immobilized DARPin, binding of human DLL3-ECD (Example 17); conditions: immobilized biotinylated DARPin, DLL3-ECD as analyte, 1:1 Langmuir, Table 19
# Procedure: (§1) Kinetic binding parameters and binding affinities of two domain (2D) ankyrin repeat protein MAM279 and single domain (1 D) ankyrin repeat protein MAM093 to DLL3 from different species were determined. The DLL3-specific ankyrin repeat domain of MAM093 is identical to the DLL3-specific ankyrin repeat domain comprised in MAM279.
# (§2) SPR multi-trace analyses were performed similarly as described in Examples 1 and 11. Here, the binding kinetics of immobilized DARPin proteins to the extracellular domain of DLL3 (DLL3-ECD) from human, cynomolgus monkey, mouse and pig were determined. Various concentrations of recombinant DLL3-ECD starting from 500 nM were applied to immobilized biotinylated 2D DARPin (MAM279; SEQ ID NO: 11) or 1 D DARPin (MAM093; SEQ ID NO: 1) (both with a Glycine-Serine (GS) at the N-terminal end) for on-rate and off-rate measurements.
# (§3) Streptavidin SAHC200M (Xantec) SPR chip was conditioned according to the manufacturer's protocol. Biotinylated DARPins were immobilized to a coating density of 27 resonance units (RU) for 1D DARPin and 25 RU for 2D DARPin. All analytes (3-fold dilution ranging from 500-6.17 nM) were injected in succession for 240 s and dissociation was recorded for 10800 s using a constant flow of 100 μl/min.
# pig DLL3-ECD = experiment: SPR, immobilized DARPin, binding of pig DLL3-ECD (Example 17); conditions: immobilized biotinylated DARPin, DLL3-ECD as analyte, 1:1 Langmuir, Table 20
# Procedure: as §1, §2, §3
# human serum albumin [1] = biological target: T2, human serum albumin (Homo sapiens, UniProt P02768); experiment: SPR binding to human serum albumin (Example 18); set-up: purchased CSL; conditions: immobilized HSA, 1:1 Langmuir, Table 21
# Procedure: SPR multi-trace analyses were performed similarly as described in previous Examples. The following ankyrin repeat proteins analyzed: (i) MAM279 (SEQ ID NO: 11) (with a Glycine-Serine (GS) at its N-terminal end); and (ii) MAM279 (SEQ ID NO: 11), with a Glycine-Serine (GS) at its N-terminal end and a tag (SEQ ID NO: 10) at its C-terminal end (resulting in GS-MAM279-tag (SEQ ID NO: 15)), conjugated to the chelator DOTAM as described in Example 3.
# All analytes (3-fold dilution ranging from 600-7.41 nM) were injected in succession for 240 s and dissociation was recorded for 600 s using a constant flow of 25 μl/min (HSA) or 100 μl/min (MSA) (25 μl/min). […] The obtained SPR traces were used to determine the DARPin-serum albumin interaction parameters, and results are summarized in Table 21.
# [2] = Dose response finding (tolerability) in WT CD1 mice
# From the text: Animals were under observation daily and 3× per week animals were weighed. […] The data were expressed as % of body weight (BW) change (relative to the initial BW −7 day before the treatment).
# Animals were under observation daily and 3× per week animals were weighed. […] The data were expressed as % of body weight (BW) change (relative to the BW seven days before the treatment, i.e. the initial BW at day −7) (average+/−SEM).
# human serum albumin [3] = biological target: T2, human serum albumin; conditions: class in words (Low, Mid, High); Table 5
# Procedure: For SPR analysis, the free Cysteine of the 2D DARPins was capped with Iodoacetamide (IAM). A surface plasmon resonance (SPR) assay was then used to determine the binding kinetics of the three 2D DARPins to human or mouse serum albumin. Various concentrations of 2D DARPins starting from 2000 nM were applied to immobilized human serum albumin (HSA) or mouse serum albumin (MSA) for on-rate and off-rate measurements.
# The data were generated using a BioRad ProteOn instrument with SPR running buffer (PBS, pH 7.4 containing 0.05% Tween 20®). A HC200M chip (Xantec) was conditioned according to the manufacturer's protocol. The chip was coated with purified human serum albumin (HSA, CSL) or mouse serum albumin (MSA, Sigma-Aldrich) in NaOAc pH5.0 to reach a signal intensity of ˜380 (HSA) or ˜630 (MSA) RU for the analysis of Intermediate HSA affinity 2D DARPin and High HSA affinity 2D DARPin; ˜1125 (HSA) or ˜1965 (MSA) for the analysis of Low HSA affinity 2D DARPin. All analytes (3-fold dilution ranging from 2000-24.69 nM) were injected in succession for 240 s (50 μl/min) and dissociation was recorded for 600 s (50 μl/min). The data was double referenced (control spot and buffer injection) and fitted to a 1:1 Langmuir model. The obtained SPR traces were used to determine binding parameters.
molecule,measurement,setting,value
B1,Kd,Human DLL3-ECD,0.127 nM
same,Koff Human DLL3-ECD,Human DLL3-ECD,1.31e-05 s⁻¹
same,Kon Human DLL3-ECD,Human DLL3-ECD,102000 M⁻¹ s⁻¹
same,Kd,pig DLL3-ECD,17.3 nM
same,Koff pig DLL3-ECD,pig DLL3-ECD,0.000319 s⁻¹
same,Kon pig DLL3-ECD,pig DLL3-ECD,18400 M⁻¹ s⁻¹
same,Kd,human serum albumin [1],75.5 nM
same,Koff HSA,human serum albumin [1],0.0216 s⁻¹
same,Kon HSA,human serum albumin [1],286000 M⁻¹ s⁻¹
B2,appearance of animals,"[2]; Pb-212 labelled conjugate injected once at 10 μCi, 20 μCi and 30 μCi i.v., WT CD1 mice",animals appeared healthy and active
same,body weight (BW) change,"[2]; Pb-212 labelled conjugate injected once at 10 μCi, 20 μCi and 30 μCi, WT CD1 mice, recovered within up to about 10 days",Minimal weight loss
same,toxicity,"[2]; Pb-212 labelled conjugate, injected dose of 60 μCi, WT CD1 mice",Toxicity was observed
same,"hematology profile (white blood cells, lymphocytes, monocytes, neutrophils)","[2]; within up to 28 days after injection of 10 μCi, 20 μCi and 30 μCi doses (data not shown)",complete recovery
B3,HSA affinity,human serum albumin [3],High

# Reference: US20250332297A1, “DLL3-SPECIFIC BINDING CONSTRUCTS AND THEIR USE IN RADIOTHERAPY” (MOLECULAR PARTNERS AG, priority 2024, published 2025)
